Measured values published in patent US20020103136.

Key:
[1] = system: Ac-4-trans-L-HypSSChgQSP(HCAP)-VIN
[2] = system: Ac-SSChgQ-SSP-(HCAP)-dAc-VIN
[3] = system: Ac-SChgQ-SS(4-trans-L-Hyp)-(HCAP)-dAc-VIN
[4] = system: Ac-4-trans-L-Hyp-SSChgQ-SS-(HCAP)-(dAc)-VIN
[5] = system: Ac-SChgQSS-Sar-(HCAP)-dAc-VIN
[6] = system: Ac-(4-trans-L-Hyp)SSChgQ-SPheol-(dAc)-VIN
[7] = system: Ac-4-trans-L-HypSSChgQS-cyclohexylalaninol-(dAc)-VIN
[8] = system: N-hydroxyacetyl-AbuSSChgQ-SP-(HCAP)-(dAc)-VIN
[9] = system: Ac-SChgQSS(PIP)-(HCAP)-dAc-VIN
[10] = system: Ac-AbuSSChgQ-SP-(HCAP)-(dAc)-VIN
[11] = system: Ac-AbuSSChgQ-S-(HCAP)-VIN
[12] = system: Ac-SSChgQ-SP-(HCAP)-(dAc)-VIN
[13] = system: Ac-SChgQ-SP-(HCAP)-(dAc)-VIN
[14] = system: Ac-SChgQSS-gammaAbu-(HCAP)-dAc-VIN

Question: Which Time to 50% Substrate Cleavage by York PSA [1] does the source give for free prostate specific antigen (PSA) here?
Answer: Its Time to 50% Substrate Cleavage by York PSA is 8 min.

Question: And the Time to 50% Substrate Cleavage by York PSA (Ac-SChgQSS(HCAP)-dAc-VIN)?
Answer: The Time to 50% Substrate Cleavage by York PSA was 12 min.

Question: What about the Time to 50% Substrate Cleavage by York PSA [2] of the same substance?
Answer: The Time to 50% Substrate Cleavage by York PSA was 8 min.

Question: What about the Time to 50% Substrate Cleavage by York PSA [3] of the same substance?
Answer: The Time to 50% Substrate Cleavage by York PSA was 7 min.

Question: What about the Time to 50% Substrate Cleavage by York PSA (Ac-SChgQ-SSP-(HCAP)-VIN) of the same substance?
Answer: Its Time to 50% Substrate Cleavage by York PSA is 8 min.

Question: What about the Time to 50% Substrate Cleavage by York PSA [4] of the same substance?
Answer: Its Time to 50% Substrate Cleavage by York PSA is 17 min.

Question: What about the Time to 50% Substrate Cleavage by York PSA [5] of the same substance?
Answer: Its Time to 50% Substrate Cleavage by York PSA is 13 min.

Question: And the Time to 50% Substrate Cleavage by York PSA (Ac-SChgQS-Abu-(HCAP)-VIN)?
Answer: The Time to 50% Substrate Cleavage by York PSA was 60 min.

Question: What about the Time to 50% Substrate Cleavage by York PSA [6] of the same substance?
Answer: Its Time to 50% Substrate Cleavage by York PSA is 25 min.

Question: And the Time to 50% Substrate Cleavage by York PSA [7]?
Answer: Its Time to 50% Substrate Cleavage by York PSA is 10 min.

Question: What about the Time to 50% Substrate Cleavage by York PSA [8] of the same substance?
Answer: Its Time to 50% Substrate Cleavage by York PSA is 11 min.

Question: And the Time to 50% Substrate Cleavage by York PSA [9]?
Answer: The Time to 50% Substrate Cleavage by York PSA was 22 min.

Question: What about the Time to 50% Substrate Cleavage by York PSA [10] of the same substance?
Answer: The Time to 50% Substrate Cleavage by York PSA was 18 min.

Question: What about the “Substrate cleavage by York PSA at 1 hour (printed in the column 'Time to 50% Substrate Cleavage by York PSA (Min)')” value [11] of the same substance?
Answer: The value was 1 HOUR = 28%.

Question: And the Time to 50% Substrate Cleavage by York PSA [12]?
Answer: The Time to 50% Substrate Cleavage by York PSA was 30 min.

Question: And the Time to 50% Substrate Cleavage by York PSA [13]?
Answer: The Time to 50% Substrate Cleavage by York PSA was 13 min.

Question: What about the Time to 50% Substrate Cleavage by York PSA [14] of the same substance?
Answer: Its Time to 50% Substrate Cleavage by York PSA is 12 min.
